Source: PMC7610489

Biological target: P4-FAM, N-terminally fluorescein-labelled P4 peptide (Streptococcus cristatus)
Test: MST

Row | Substance | Kd [µM]
1 | RagAB complex purified from wild-type P. gingivalis W83, 8xHis-tag on the C terminus of RagB | 2
2 | RagAB from P. gingivalis ATCC 33277 (complex) | 0.2
